Tested on: NC(=O)CC[C@H](N)C(=O)O
Assay: purified protein
Conditions: MgCl2 present, 0-25 mM substrate, standard assay pH 8 phosphate, 50 °C

## rSAM (L-glutaminase) (Cohnella sp.)
  Km: 1800 µM

Reference: article PMC6910923, “Novel halo- and thermo-tolerant Cohnella sp. A01 L-glutaminase: heterologous expression and biochemical characterization” (Scientific Reports, 2019)
